Source: patent US20160206715A1

Molecular target: T1, rMuIL15Ra (murine IL-15 receptor R&D Systems) (murine), Q60819
T1 chain: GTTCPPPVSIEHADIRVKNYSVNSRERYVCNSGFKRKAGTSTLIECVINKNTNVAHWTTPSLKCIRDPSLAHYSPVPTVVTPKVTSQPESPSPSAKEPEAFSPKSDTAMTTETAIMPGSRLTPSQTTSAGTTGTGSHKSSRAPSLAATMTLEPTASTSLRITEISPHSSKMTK
Assay: BLI (ForteBio), biotinylated rMuIL15Ra on SA biosensors, rMuIL15 in solution, 1:1 fit
Settings: remark: other sources report otherwise

B1: rMuIL15 (R&D Systems), P48346 49-162 (ligand, murine, UniProt P48346 49-162, looked up)
chain: NWIDVRYDLEKIESLIQSIHIDTTLYTDSDFHPSCKVTAMNCFLLELQVILHEYSNMTLNETVRNVLYLANSTLSSNKNVAESGCKECEELEEKTFTEFLQSFIRIVQMFINTS
modifications: here or on the partner: biotinylated with EZ-Link NHS-LC-Biotin (sites not given)
- Kd: 5.57 nM
